Sequences and labels used below:
B1: Integrin beta-4 (Homo sapiens), P16144 (parent)
chain: MAGPRPSPWARLLLAALISVSLSGTLANRCKKAPVKSCTECVRVDKDCAYCTDEMFRDRRCNTQAELLAAGCQRESIVVMESSFQITEETQIDTTLRRSQMSPQGLRVRLRPGEERHFELEVFEPLESPVDLYILMDFSNSMSDDLDNLKKMGQNLARVLSQLTSDYTIGFGKFVDKVSVPQTDMRPEKLKEPWPNSDPPFSFKNVISLTEDVDEFRNKLQGERISGNLDAPEGGFDAILQTAVCTRDIGWRPDSTHLLVFSTESAFHYEADGANVLAGIMSRNDERCHLDTTGTYTQYRTQDYPSVPTLVRLLAKHNIIPIFAVTNYSYSYYEKLHTYFPVSSLGVLQEDSSNIVELLEEAFNRIRSNLDIRALDSPRGLRTEVTSKMFQKTRTGSFHIRRGEVGIYQVQLRALEHVDGTHVCQLPEDQKGNIHLKPSFSDGLKMDAGIICDVCTCELQKEVRSARCSFNGDFVCGQCVCSEGWSGQTCNCSTGSLSDIQPCLREGEDKPCSGRGECQCGHCVCYGEGRYEGQFCEYDNFQCPRTSGFLCNDRGRCSMGQCVCEPGWTGPSCDCPLSNATCIDSNGGICNGRGHCECGRCHCHQQSLYTDTICEINYSAIHPGLCEDLRSCVQCQAWGTGEKKGRTCEECNFKVKMVDELKRAEEVVVRCSFRDEDDDCTYSYTMEGDGAPGPNSTVLVHKKKDCPPGSFWWLIPLLLLLLPLLALLLLLCWKYCACCKACLALLPCCNRGHMVGFKEDHYMLRENLMASDHLDTPMLRSGNLKGRDVVRWKVTNNMQRPGFATHAASINPTELVPYGLSLRLARLCTENLLKPDTRECAQLRQEVEENLNEVYRQISGVHKLQQTKFRQQPNAGKKQDHTIVDTVLMAPRSAKPALLKLTEKQVEQRAFHDLKVAPGYYTLTADQDARGMVEFQEGVELVDVRVPLFIRPEDDDEKQLLVEAIDVPAGTATLGRRLVNITIIKEQARDVVSFEQPEFSVSRGDQVARIPVIRRVLDGGKSQVSYRTQDGTAQGNRDYIPVEGELLFQPGEAWKELQVKLLELQEVDSLLRGRQVRRFHVQLSNPKFGAHLGQPHSTTIIIRDPDELDRSFTSQMLSSQPPPHGDLGAPQNPNAKAAGSRKIHFNWLPPSGKPMGYRVKYWIQGDSESEAHLLDSKVPSVELTNLYPYCDYEMKVCAYGAQGEGPYSSLVSCRTHQEVPSEPGRLAFNVVSSTVTQLSWAEPAETNGEITAYEVCYGLVNDDNRPIGPMKKVLVDNPKNRMLLIENLRESQPYRYTVKARNGAGWGPEREAIINLATQPKRPMSIPIIPDIPIVDAQSGEDYDSFLMYSDDVLRSPSGSQRPSVSDDTGCGWKFEPLLGEELDLRRVTWRLPPELIPRLSASSGRSSDAEAPHGPPDDGGAGGKGGSLPRSATPGPPGEHLVNGRMDFAFPGSTNSLHRMTTTSAAAYGTHLSPHVPHRVLSTSSTLTRDYNSLTRSEHSHSTTLPRDYSTLTSVSSHDSRLTAGVPDTPTRLVFSALGPTSLRVSWQEPRCERPLQGYSVEYQLLNGGELHRLNIPNPAQTSVVVEDLLPNHSYVFRVRAQSQEGWGREREGVITIESQVHPQSPLCPLPGSAFTLSTPSAPGPLVFTALSPDSLQLSWERPRRPNGDIVGYLVTCEMAQGGGPATAFRVDGDSPESRLTVPGLSENVPYKFKVQARTTEGFGPEREGIITIESQDGGPFPQLGSRAGLFQHPLQSEYSSITTTHTSATEPFLVDGLTLGAQHLEAGGSLTRHVTQEFVSRTLTTSGTLSTHMDQQFFQT

In the first test the parent is B1. As to conditions: with plec_human PLEC.
For the variant R1281A, the “effect of a mutation on the interaction” value is reported as “disrupting interaction”.

In another test the parent is B1. As to conditions: with plec_human PLEC. This is another data set of the same source.
For R1225H, the “effect of a mutation on the interaction” value was “disrupting interaction”.

Source of the values: IntAct's records for PubMed 19242489.
